Laboratory results: article PMC5538626 (EMBO Reports, 2017)
Ends that are not written are not given here.

B1: JMY LIR peptide (10–18), biotinylated (peptide)
peptide: ESDWVAVRP
modifications: also: biotinylated
notes: JMY LIR; source: bought: JPT (biotinylated peptide)
B2: Calreticulin LIR peptide (197–205), biotinylated (peptide)
peptide: EDDWDFLPP
modifications: also: biotinylated
notes: Calreticulin LIR; source: bought: JPT (biotinylated peptide)
B3: FYCO1 LIR peptide (1277–1285), biotinylated (peptide)
peptide: DAVFDIITD
modifications: also: biotinylated
notes: FYCO1 LIR; source: bought: JPT (biotinylated peptide)
B4: TP53INP2/DOR LIR peptide (32–40), biotinylated (peptide)
peptide: VDGWLIIDL
modifications: also: biotinylated
notes: TP53INP2/DOR LIR; source: bought: JPT (biotinylated peptide)
B5: NBR1 LIR peptide (729–737), biotinylated (peptide)
peptide: SEDYIIILP
modifications: also: biotinylated
notes: NBR1 LIR; source: bought: JPT (biotinylated peptide)
B6: ULK2 LIR peptide (350–358), biotinylated (peptide)
peptide: TDDFVLVPH
modifications: also: biotinylated
notes: ULK2 LIR; source: bought: JPT (biotinylated peptide)
B7: OPTN LIR peptide (175–183), biotinylated (peptide)
peptide: EDSFVEIRM
modifications: also: biotinylated
notes: OPTN LIR; source: bought: JPT (biotinylated peptide)
B8: PLEKHM1‐LIR V636C peptide (biotinylated 9-mer) (peptide, UniProt Q9Y4G2 632-640, looked up)
peptide: EDEWCNVQY
modifications: also: biotinylated
notes: PLEKHM1 LIR; source: bought: JPT (biotinylated peptide)
B9: Tax1BP1 LIR peptide (137–145), biotinylated (peptide)
peptide: NSDMLVVTT
modifications: also: biotinylated
notes: Tax1BP1 LIR; source: bought: JPT (biotinylated peptide)
B10: c‐CBL LIR peptide (799–807), biotinylated (peptide)
peptide: SFGWLSLDG
modifications: also: biotinylated
notes: c-CBL LIR; source: bought: JPT (biotinylated peptide)
B11: PLEKHM1‐LIR N637C peptide (biotinylated 9-mer) (peptide, UniProt Q9Y4G2 632-640, looked up)
peptide: EDEWVCVQY
modifications: also: biotinylated
notes: as for B8
B12: FAM134B LIR peptide (452–460), biotinylated (peptide)
peptide: GDDFELLDQ
modifications: also: biotinylated
notes: FAM134B LIR; source: bought: JPT (biotinylated peptide)
B13: PLEKHM1‐LIR V636A peptide (biotinylated 9-mer) (peptide, UniProt Q9Y4G2 632-640, looked up)
peptide: EDEWANVQY
modifications: also: biotinylated
notes: as for B8
B14: ATG4B LIR peptide (4–12), biotinylated (peptide)
peptide: TLTYDTLRF
modifications: also: biotinylated
notes: ATG4B LIR; source: bought: JPT (biotinylated peptide)
B15: β‐Catenin LIR peptide (501–509), biotinylated (peptide)
peptide: PSHWPLIKA
modifications: also: biotinylated
notes: β-Catenin LIR; source: bought: JPT (biotinylated peptide)
B16: KTBD6 LIR peptide (665–673), biotinylated (peptide)
peptide: DDFWVRVAP
modifications: also: biotinylated
notes: KBTBD6 in the text; also called KBTBD6; KBTDB6; source: bought: JPT (biotinylated peptide)
B17: PLEKHM1‐LIR N637P peptide (biotinylated 9-mer) (peptide, UniProt Q9Y4G2 632-640, looked up)
peptide: EDEWVPVQY
modifications: also: biotinylated
notes: as for B8
B18: TBC1D5 (LIR2) peptide (785–793), biotinylated (peptide)
peptide: DSGFTIVSP
modifications: also: biotinylated
notes: TBC1D5 LIR2; source: bought: JPT (biotinylated peptide)
B19: MAP15K LIR peptide (337–345), biotinylated (peptide)
peptide: SRVYQMILE
modifications: also: biotinylated
notes: printed as MAP15K; source: bought: JPT (biotinylated peptide)
B20: TBC1D5 (LIR1) peptide (55–63), biotinylated (peptide)
peptide: RKEWEELFV
modifications: also: biotinylated
notes: TBC1D5 LIR1; source: bought: JPT (biotinylated peptide)
B21: TP53INP1 LIR peptide (28–36), biotinylated (peptide)
peptide: DDEWILVDF
modifications: also: biotinylated
notes: TP53INP1 LIR; source: bought: JPT (biotinylated peptide)
B22: TECPR2 LIR peptide (1403–1411), biotinylated (peptide)
peptide: DLEDEWEVI
modifications: also: biotinylated
notes: TECPR2 LIR; source: bought: JPT (biotinylated peptide)
B23: PLEKHM1‐LIR N637R peptide (biotinylated 9-mer) (peptide, UniProt Q9Y4G2 632-640, looked up)
peptide: EDEWVRVQY
modifications: also: biotinylated
notes: as for B8
B24: PLEKHM1‐LIR N637I peptide (biotinylated 9-mer) (peptide, UniProt Q9Y4G2 632-640, looked up)
peptide: EDEWVIVQY
modifications: also: biotinylated
notes: as for B8
B25: DVL2 LIR peptide (441–449), biotinylated (peptide)
peptide: DRMWLKITI
modifications: also: biotinylated
notes: DVL2 LIR; source: bought: JPT (biotinylated peptide)
B26: TBC1D25 LIR peptide (133–141), biotinylated (peptide)
peptide: LEDWDIISP
modifications: also: biotinylated
notes: TBC1D25 LIR; source: bought: JPT (biotinylated peptide)
B27: PLEKHM1‐LIR N637F peptide (biotinylated 9-mer) (peptide, UniProt Q9Y4G2 632-640, looked up)
peptide: EDEWVFVQY
modifications: also: biotinylated
notes: as for B8
B28: PLEKHM1‐LIR WT peptide (EDEWVNVQY), biotinylated (peptide)
peptide: EDEWVNVQY
modifications: also: biotinylated
notes: PLEKHM1 LIR; also called PLEKHM1 LIR 632–640; source: bought: JPT (biotinylated peptide)
B29: NDP52 LIR peptide (130–138), biotinylated (peptide)
peptide: EEDILVVTT
modifications: also: biotinylated
notes: NDP52 LIR; source: bought: JPT (biotinylated peptide)
B30: ULK1 LIR peptide (354–362), biotinylated (peptide)
peptide: TDDFVMVPA
modifications: also: biotinylated
notes: ULK1 LIR; source: bought: JPT (biotinylated peptide)
B31: PLEKHM1‐LIR V638A peptide (biotinylated 9-mer) (peptide, UniProt Q9Y4G2 632-640, looked up)
peptide: EDEWVNAQY
modifications: also: biotinylated
notes: as for B8
B32: NIX/BNIPL3 LIR peptide (33–41), biotinylated (peptide)
peptide: NSSWVELPM
modifications: also: biotinylated
notes: NIX LIR; also called Nix/BNIP3L; source: bought: JPT (biotinylated peptide)
B33: FIP200 LIR peptide (699–707), biotinylated (peptide)
peptide: TFDFETIPH
modifications: also: biotinylated
notes: FIP200 LIR; source: bought: JPT (biotinylated peptide)
B34: PLEKHM1‐LIR N637A peptide (biotinylated 9-mer) (peptide, UniProt Q9Y4G2 632-640, looked up)
peptide: EDEWVAVQY
modifications: also: biotinylated
notes: as for B8
B35: Clathrin HC1 LIR peptide (511–519), biotinylated (peptide)
peptide: TPDWIFLLR
modifications: also: biotinylated
notes: Clathrin HC1 LIR; source: bought: JPT (biotinylated peptide)
B36: PLEKHM1‐LIR N637K peptide (biotinylated 9-mer) (peptide, UniProt Q9Y4G2 632-640, looked up)
peptide: EDEWVKVQY
modifications: also: biotinylated
notes: as for B8
B37: PLEKHM1‐LIR N637G peptide (biotinylated 9-mer) (peptide, UniProt Q9Y4G2 632-640, looked up)
peptide: EDEWVGVQY
modifications: also: biotinylated
notes: as for B8
B38: ATG13 LIR peptide (441–449), biotinylated (peptide)
peptide: HDDFVMIDF
modifications: also: biotinylated
notes: ATG13 LIR; source: bought: JPT (biotinylated peptide)
B39: STBD1 LIR peptide (200–208), biotinylated (peptide)
peptide: HEEWEMVPR
modifications: also: biotinylated
notes: STBD1 LIR; source: bought: JPT (biotinylated peptide)
B40: FUNDC1 LIR peptide (printed positions 152–160), biotinylated (peptide)
peptide: DDSYEVLDL
modifications: also: biotinylated
notes: FUNDC1 LIR; source: bought: JPT (biotinylated peptide)

biological target: T1, 6xHis‐tagged GABARAP (human, UniProt O95166 1-117); experiment: ELISA; called peptide array: biotinylated peptides immobilised on streptavidin-coated 96-well plates; 1 μM His6-mATG8 in PBS, 0.1% Tween-20, 1% BSA, 1 h, 8°C; anti-His-HRP, TMB, absorbance at 450 nm; settings: both partners purified
T1 construct: GABARAP, human; also called His6‐GABARAP; source: E. coli, isolated
T1 sequence (O95166 whole entry): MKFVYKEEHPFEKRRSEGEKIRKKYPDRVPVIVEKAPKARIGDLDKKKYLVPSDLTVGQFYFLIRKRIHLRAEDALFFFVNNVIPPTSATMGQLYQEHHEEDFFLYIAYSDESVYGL

Row | Binder | binding result
1 | B1 | binds
2 | B2 | binds
3 | B3 | binds
4 | B4 | binds
5 | B5 | binds
6 | B6 | binds
7 | B7 | binds
8 | B8 | binds
9 | B9 | binds
10 | B10 | binds
11 | B11 | binds
12 | B12 | binds
13 | B13 | binds
14 | B14 | binds
15 | B15 | binds
16 | B16 | binds
17 | B17 | binds
18 | B18 | binds
19 | B19 | binds
20 | B20 | binds

Row | Binder | binding result
21 | B21 | binds
22 | B22 | binds
23 | B23 | binds
24 | B24 | binds
25 | B25 | binds
26 | B26 | binds
27 | B27 | binds
28 | B28 | binds
29 | B29 | binds
30 | B30 | binds
31 | B31 | binds
32 | B32 | binds
33 | B33 | binds
34 | B34 | binds
35 | B35 | binds
36 | B36 | binds
37 | B37 | binds
38 | B38 | binds
39 | B39 | binds

biological target: T2, 6xHis‐tagged GABARAP‐L1 (human, UniProt Q9H0R8 1-117); experiment: as above; settings: both partners purified
T2 construct: GABARAP-L1, human; also called His6‐GABARAP‐L1; source: E. coli, isolated
T2 sequence (Q9H0R8 whole entry, looked up): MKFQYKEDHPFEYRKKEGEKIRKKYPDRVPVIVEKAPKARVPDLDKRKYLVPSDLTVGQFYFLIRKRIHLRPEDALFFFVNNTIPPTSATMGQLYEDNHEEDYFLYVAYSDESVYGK

Row | Binder | binding result
40 | B8 | binds
41 | B11 | binds
42 | B17 | binds
43 | B23 | binds
44 | B24 | binds
45 | B27 | binds
46 | B28 | binds
47 | B34 | binds
48 | B36 | binds
49 | B37 | binds

biological target: T3, 6xHis‐tagged GABARAP‐L2 (human, UniProt P60520 1-117); experiment: as above; settings: both partners purified
T3 construct: GABARAP-L2/GATE-16, human; also called His6‐GABARAP‐L2; GATE‐16; source: E. coli, isolated
T3 sequence (P60520 whole entry): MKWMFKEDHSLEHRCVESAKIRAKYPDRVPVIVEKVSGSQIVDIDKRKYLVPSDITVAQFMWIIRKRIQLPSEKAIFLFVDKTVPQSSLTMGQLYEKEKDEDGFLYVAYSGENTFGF

Row | Binder | binding result
50 | B8 | binds
51 | B11 | binds
52 | B13 | binds
53 | B17 | binds
54 | B23 | binds
55 | B24 | binds
56 | B27 | binds
57 | B28 | binds
58 | B31 | binds
59 | B34 | binds
60 | B36 | binds
61 | B37 | binds

biological target: T4, 6xHis‐tagged LC3A (human, UniProt Q9H492 1-121); experiment: as above; settings: both partners purified
T4 construct: LC3A (MAP1LC3A), human; also called His6‐LC3A; MAP1LC3A; source: E. coli, isolated

Row | Binder | binding result
62 | B8 | binds
63 | B11 | binds
64 | B24 | binds
65 | B27 | binds
66 | B28 | binds

biological target: T5, 6xHis‐tagged LC3C (human, UniProt Q9BXW4 1-126); experiment: as above; settings: both partners purified
T5 construct: LC3C, human; also called His6‐LC3C; source: E. coli, isolated
T5 sequence (Q9BXW4 1-126): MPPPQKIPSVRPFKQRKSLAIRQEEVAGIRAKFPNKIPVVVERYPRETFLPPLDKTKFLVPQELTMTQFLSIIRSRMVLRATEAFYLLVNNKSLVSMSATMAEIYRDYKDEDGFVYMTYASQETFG

Row | Binder | binding result
67 | B8 | binds
68 | B11 | binds
69 | B24 | binds
70 | B27 | binds
71 | B28 | binds

biological target: 6xHis‐tagged LC3B (human, UniProt Q9GZQ8 1-120); experiment: as above; settings: both partners purified

Row | Binder | binding result
72 | B2 | binds
73 | B3 | binds
74 | B4 | binds
75 | B8 | binds
76 | B9 | binds
77 | B10 | binds
78 | B11 | binds
79 | B12 | binds
80 | B14 | binds
81 | B15 | binds
82 | B18 | binds
83 | B19 | binds
84 | B21 | binds
85 | B22 | binds
86 | B40 | binds
87 | B24 | binds
88 | B25 | binds
89 | B26 | binds
90 | B27 | binds
91 | B28 | binds
92 | B29 | binds
93 | B32 | binds
94 | B33 | binds
